Experiment: yeast display, Sf9 membrane polyspecificity reagent, FACS + sequencing; frameworks hold sequencing errors
Outline: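 In a synthetic yeast display library (Saccharomyces cerevisiae BJ5465), nanobody expression was induced with galactose for 36–48 hours. FACS gates were set low and high (top ~1%) using anti-HA fluorescence for expression and streptavidin fluorescence for binding of the Sf9 membrane reagent. Each polyreactivity label is drawn from the gate of origin.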

Row | Sequence | polyreactivity (PSR sort gate)
1 | QVQLEESGGGLVQAGGSLRLSCAASGLIFQVYALGWYRQAPGKERELVASISWNGGSTYYADSVKGRFTISRDNAKNTVYLQMNSLKPEDTAVYYCNKYPVSLWYYSKDYTYDYWGQGTQVTVSS | low polyreactivity
2 | QVQLEESGGGLVQAGGSLRLSCAASGLILRTYGMGWYRQAPGKERELVAVISSGGSTYYADSVKGRFTISRDNAKNTVYLQMNSLKPEDTAVYYCAVRSSWYEGDYWGQGTQVTVSS | low polyreactivity
3 | QVQLEESGGGLVQAGGSLRLSCAASGLTFGDYTMGWYRQAPWKERELVAAITSRGGRTYYADSVKGRFTISRDNAKNTVYLQMNSLTPEDTAVYYCAADDLRIKRVGFDYWGQGTQVTVSS | high polyreactivity
4 | QVQLEESGGGLVQAGGSLRLSCAASGLTFRSYAMGWYRQAPGTEREFVAAITGSGDTTYYAVSVKGRFTISRDNALNTVYLQMNSLNPEETAGYYCNADRDYLWITLYEYWGQGTQLTVSS | high polyreactivity
5 | QVQLEESGGGLVQAGGSLRLSCAASGLTFVYNAMGWYRQAPGKERELVAAISRVGSTNYADSVKGRFTISRDNAKNTVYLQMNSLKPEDTAVYYCNAERSRRYSGWVNYAPLNYWGQGTQVTVSS | low polyreactivity
6 | QVQLEESGGGLVQAGGSLRLSCAASGLTLGRYAMGWYRPAPGKERELVAVITGGGSTNYADSVKGRFTISRDNAKNTVYLQMNSLKPEDTAVYYCAVRGGIFQTLSTWYRYYYWGQGTQVTVSS | high polyreactivity
7 | QVQLEESGGGLVQAGGSLRLSCAASGRICAYYTMGWYRQAPGKERELVASITSGSSTNYADSVKGRFTISRDNAKNTVYLQMNSLKPEDTAVYYSAAPRGSYVRTRYRGYVVQSNYWGQGTQVTVSS | high polyreactivity
8 | QVQLEESGGGLVQAGGSLRLSCAASGRIFGIYAMGWYRQAPGKERELVASITDGTITNYADSVKGRFTISRDNAKNTVYLQMNSLKPEDTAVYYCAAGTQAHAFVVRPIEMDYWGQGTQVTVSS | low polyreactivity
9 | QVQLEESGGGLVQAGGSLRLSCAASGRIFHKNAMGWYRQAPGKEREFVATISSRGGSTYYADSVKGRFTISRDNSKNTVYLQMNSLKPEDSAVYYCAAGWYRNDWGQRLHTYYYWGQGTQVTVSS | high polyreactivity
10 | QVQLEESGGGLVQAGGSLRLSCAASGRIFNENAMGWYRQAPGKERELVAAITQSGGSTYYADSVKGRFTISRDNAKNTVYLQMNSLKPEDTAVYYCAAGDAYYTEALPFGEYDYWGQGTQVTVSS | low polyreactivity
11 | QVQLEESGGGLVQAGGSLRLSCAASGRIFPINTMGWYRQAPGKERELVAAISSNGGRTYYADSVKGRFTISRDNAKNTVYLQMNSLKPEDTAVYYCAADAGYYWPGYYYWGQGTQVTVSS | high polyreactivity
12 | QVQLEESGGGLVQAGGSLRLSCAASGRIFSGNAKGWYRQAPGKERELVANITSSSNTNYADSVKGRFTISRDNAKNTVYLQMNSLKPEDTAVYYCAKSAHNGYSFYGYDYWGQGTQVTVSS | low polyreactivity
13 | QVQLEESGGGLVQAGGSLRLSCAASGRIFSYNVMGWYRQAPGKEREFVAAITSNDGSTYYADSVKGRFTISRDNAKNTVYLQMNSLKPEDTAVYYCNADFGPVSLKEPFRDDYWGQGTQVNVSS | low polyreactivity
14 | QVQLEESGGGLVQAGGSLRLSCAASGRIFTANAMGWYRQAPGKERELVASISYRSGRTRYADSVKGRFTISRDNAKNTVYLQMNSLKPEDTAVYYCATDRGRRYDYWGQGTQVTVSS | high polyreactivity
15 | QVQLEESGGGLVQAGGSLRLSCAASGRIFVFYDMGWYRQAPGKERELVATITRSGGRTYYADSVKGRFTISRDNAKNTVYLQMNSLKPEDTAVYYCAARRYGKYDYWGQGTQVTVSS | low polyreactivity
16 | QVQLEESGGGLVQAGGSLRLSCAASGRIFVSNDMGWYRQAPGKERELVAAITWSDDSTHYADSVKGRFTISRDYAKNTVYLQRNSVKPEDTAVYYCNKQRYYSTWRYDYWGQGTQVTVSS | low polyreactivity
17 | QVQLEESGGGLVQAGGSLRLSCAASGRIFWVNVMGWYRQAPGKERELVAAITRGASTYADSVKGRFTISRDNAKNTVYLQLNSLKPEDTAVYYCAVGISDFQYYDYVYWGQGTHVTVSS | high polyreactivity
18 | QVQLEESGGGLVQAGGSLRLSCAASGRIFYGYAMGWSRQAPGKERELVASISRRGSSTYYADSVKGRFTISRDNAKNTVYLQMNSLKPEDTAVYYCAAGYYPFNYWGQGTQVTVSS | high polyreactivity
19 | QVQLEESGGGLVQAGGSLRLSCAASGRIIYSNGMGWYRQAPGKERELVAAISSGGSTYYADSVKGRFTISRDNAKNTVYLQMNSLKPEDTAVYYCAADIDYERDRYDYWGQGTQVTVSS | low polyreactivity
20 | QVQLEESGGGLVQAGGSLRLSCAASGRISAKYAMGWYRKAPGKERELVASISWSGGSTYYADSVKGRFTISRDNAKNTVYLQMNSLKPEDTAVYYCAADLTQQRGVRGMDYWGQGTQVTVSS | low polyreactivity
21 | QVQLEESGGGLVQAGGSLRLSCAASGRTFAFNAMGWYRPAPGKVRELVAVITSRTTRTYYADSVKGRFTISRDNAKNTVYLQMNSLKPEDTAVYYCAAGFRRQSIRFDYWGQGTQVTVSS | high polyreactivity
22 | QVQLEESGGGLVQAGGSLRLSCAASGRTFDVYAMGWYRQAPGKEREFVAAINWSSSSTYYADSVKGRFTISRDNAKNTVYLQMNSLKPEDTAVYYCAARYKRYTRFDYWGQGTQVTVSS | high polyreactivity

Row | Sequence | polyreactivity (PSR sort gate)
23 | QVQLEESGGGLVQAGGSLRLSCAASGRTFKYYAMGWYIQAPGKERELVAAISWSGGDTYYADSVKGRFTISRDNAKNTVYLQMNSLKQEDTAVYYCAKYPWYRYPSYEYWGQGTQVTVSS | high polyreactivity
24 | QVQLEESGGGLVQAGGSLRLSCAASGRTFRINDMGWYRQAPGKERELVATINSTGSTNYADSVKGRFTISRDNAKNTVYLQMNSLKPEDTAVYYCNAYLYYYRYHYNYWGQGTQVTVSS | low polyreactivity
25 | QVQLEESGGGLVQAGGSLRLSCAASGRTFSYYSMGCYRKAPGKERELVAAITSGGRTYYADSVKGRFTISRDNAKNTVYLQINSLKPEDTAVYYCAARWYARSLTRFNYWGQGTQVTVSS | high polyreactivity
26 | QVQLEESGGGLVQAGGSLRLSCAASGRTFYGKAMGWYRNAPGKEWEFVASISYSGTTTYYADSVKGRFTISRDNAKNTVYLKMNSLKPEDTAVYYCAVESYPTDYGPRFGSWGQGTQVTVSS | low polyreactivity
27 | QVQLEESGGGLVQAGGSLRLSCAASGRTFYSYAMGWYRQAPGKEREWVAAITSDGGTYYADSVKGRFTISRDNAKNTVYLQMNSLKPEDTAVYYCAAELYYWYYYWGQGTQVTVSS | low polyreactivity
28 | QVQLEESGGGLVQAGGSLRLSCAASGRTFYVNAMGWYRQATGKERELVAAISWSGGSTYYADSVKGRFTISRDNAKNTVYLQINSLKPEDTAVYYCAAEDIEDYEYWGQGTQVTVSS | low polyreactivity
29 | QVQLEESGGGLVQAGGSLRLSCAASGSIFALYAMGWYRQAPGKERELVAAISYRGGRTYYADSVKARFTISRDYAKNTVYLQMNILKPEDTAVYYCATDFPCKFDFWGQGTQVTVSS | low polyreactivity
30 | QVQLEESGGGLVQAGGSLRLSCAASGSIFDSYARGWNSQAPVQERELVAAISRSGGRTYYADSVKGRFTISRDNAKNTVYLQMNSLKPEDTAVYYCNVVLGWWAPYFYTSGDYWGQGTQVTVSS | high polyreactivity
31 | QVQLEESGGGLVQAGGSLRLSCAASGSIFGNAMGWYRQAPGKEREFVAAISSSGSSTYYADSVKGRFTISRDNAKNTVYLQMNSLKPEDTAVYYCAKRRRSADPKYDYWGQGTQVTVSS | high polyreactivity
32 | QVQLEESGGGLVQAGGSLRLSCAASGSIFQSYDMGWYRQAPGKERELVAAISWSGSTTYYADSVKGRFTISRDNAKNTVYLQMNSLKPEDTAVYYSAVDSNPPDWWAVIYGYWGQGTQVTVSS | low polyreactivity
33 | QVQLEESGGGLVQAGGSLRLSCAASGSIFRSNAMGWYRQAPGKERELVAAISSSGGSTYYADSVKGRFTISRDKAKNTVYLQMNSLKPEDTAVYYCAARPSGRGYYLLGYWGQGTQVTVSS | low polyreactivity
34 | QVQLEESGGGLVQAGGSLRLSCAASGSIFSQYAMGWYRQAPGKERELVASITWRGGRTYYADSVKGRFTISRDNAKNTVYLQMNSLKPEDTAVYYCNRVYGAHHYYYGIGTYDYWGQGTQVTVSS | high polyreactivity
35 | QVQLEESGGGLVQAGGSLRLSCAASGSIFSTYAMGWYRQAPGKERELVSAINSGDSTSYADSVKGRFTISRDNAKNTVYLQRNSLKPEDTAVYYCAAKTGGYWYLRRTGRYESWGQGTQVTVSS | low polyreactivity
36 | QVQLEESGGGLVQAGGSLRLSCAASGSIFTANAMGWYRQAHGKERELVAAINRSGGRTYADSVKGRFTISRDNAKNTVYLQMNSLKPEDTAVYYCAAVGHVYKGHDFGYWGQGTQVTVSS | low polyreactivity
37 | QVQLEESGGGLVQAGGSLRLSCAASGSIFTDYAMGSYGQAPGKERELVAAITSGGSTNYADSVKGRFTISRDNAKNTVYLQMNSLKPEDTAVYYCNADDYWLDSWSSDLWYDYWGQGTQVTVSS | low polyreactivity
38 | QVQLEESGGGLVQAGGSLRLSCAASGSIFVRNAMGWYRQAPGKERELVAAISRSGSSTYYADSVKGRFTISRDNAKNTVYLQMNSLKPEDTAVYYCAKRRPALRWIYYYWGQGTQVTVSS | high polyreactivity
39 | QVQLEESGGGLVQAGGSLRLSCAASGSIFVSVTMGWYRQAPGKERELVASIGRGSTTNHADSVKGRFTISRDNAKNIVYLLMNSLKPEDTAVYYCAALESYGKYHGYWGQGTQVTVSS | low polyreactivity
40 | QVQLEESGGGLVQAGGSLRLSCAASGSIFYPYAMGWYRQAPGKERELVAAISGRGGNTYYADSVKGRFTISRDIAKNTVYLQMNSLKPEDSAVYDCAADRYYWSLYGYDYWGQGTQVTVSA | high polyreactivity
41 | QVQLEESGGGLVQAGGSLRLSCAASGSIFYVNAMGWYRQAPGKERELVAAITSSGGSTYYADSVKGRFTISRDNAKNTVYLQMNSLIPEDTAVYYCAVDVYPGVFVEEGEYWGQGTQVTVSS | low polyreactivity
42 | QVQLEESGGGLVQAGGSLRLSCAASGSIFYYNAMGWYRQAPGTERELVAAIRRSGGRTYYADSVKGRFTISRDNAKNSVYLQMNSLKPEDTAVYYCAAVHYDRVTCQVDNDYWGQGTQVTVSS | high polyreactivity
43 | QVQLEESGGGLVQAGGSLRLSCAASGSIIYENTMGWYRQAPGKERELVAAISASGGSTEYADSVKGRFTISRDNEKNTVYLQMKSLKPEDTGVYYCAADACAFYFGGDYWGLGTQVTVSS | low polyreactivity

From the nanobody polyreactivity screen of Harvey et al. (2022)
